Results taken from the supplement of paper PMC10724198.
± gives the standard deviation of the averaged measurements.

Columns and labels:
Saccharomyces cerevisiae [1] = assay: protein stability index of tFT-peptide fusion (C-terminal peptide) (PSI (0-1 scale)); higher = more stable (slower turnover); conditions: genetic background: wild type; temperature: 30 C
Saccharomyces cerevisiae [2] = assay: as above
Experimental: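 MPS profiling in S. cerevisiae of the tFT-X12 degron library: putative degron peptides plus stable controls, 12 aa, fused to the C-terminus of a sfGFP-mCherry timer. Cells are FACS-sorted into 8 mCherry/sfGFP bins and deep-sequenced. PSI runs from 0 (unstable) to 1 (stable). Backgrounds are wild type, das1Δ and doa10Δ at 30 °C, and wild type, das1Δ, cdc34-1 and cdc53-1 at 37 °C; 2-3 technical replicates each.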

[3] = genetic background: cdc34-1, temperature: 37 C
[4] = genetic background: cdc53-1, temperature: 37 C
[5] = genetic background: das1 deletion, temperature: 30 C
[6] = genetic background: das1 deletion, temperature: 37 C
[7] = genetic background: doa10 deletion, temperature: 30 C
[8] = genetic background: wild type, temperature: 30 C
[9] = genetic background: wild type, temperature: 37 C
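Note: PSI is a weighted mean of sequencing reads over stability bins, variants kept only with over 10 reads, mCherry proximal and sfGFP distal, peptide attached via GGGS linker.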

CSWMRSRMWVGG
protein stability index (Saccharomyces cerevisiae [1]): 0.3994 ± 0.0039 | protein stability index (Saccharomyces cerevisiae [2]; [3]): 0.33 ± 0.051 | protein stability index (Saccharomyces cerevisiae [2]; [4]): 0.419 ± 0.03 | protein stability index (Saccharomyces cerevisiae [2]; [5]): 0.422 ± 0.0063 | protein stability index (Saccharomyces cerevisiae [2]; [6]): 0.36 ± 0.0087 | protein stability index (Saccharomyces cerevisiae [2]; [7]): 0.454 ± 0.014 | protein stability index (Saccharomyces cerevisiae [2]; [8]): 0.409 ± 0.013 | protein stability index (Saccharomyces cerevisiae [2]; [9]): 0.346 ± 0.0053

FCRPCCLIVFVV
protein stability index (Saccharomyces cerevisiae [1]): 0.184 ± 0.037 | protein stability index (Saccharomyces cerevisiae [2]; [3]): 0.236 ± 0.026 | protein stability index (Saccharomyces cerevisiae [2]; [4]): 0.295 ± 0.029 | protein stability index (Saccharomyces cerevisiae [2]; [5]): 0.253 ± 0.036 | protein stability index (Saccharomyces cerevisiae [2]; [6]): 0.467 ± 0.0059 | protein stability index (Saccharomyces cerevisiae [2]; [7]): 0.122 ± 0.0099 | protein stability index (Saccharomyces cerevisiae [2]; [8]): 0.128 ± 0.019 | protein stability index (Saccharomyces cerevisiae [2]; [9]): 0.126 ± 0.019

PRFRALLLIPVR
protein stability index (Saccharomyces cerevisiae [1]): 0.27 ± 0.012 | protein stability index (Saccharomyces cerevisiae [2]; [3]): 0.0611 ± 0.016 | protein stability index (Saccharomyces cerevisiae [2]; [4]): 0.158 ± 0.029 | protein stability index (Saccharomyces cerevisiae [2]; [5]): 0.178 ± 0.046 | protein stability index (Saccharomyces cerevisiae [2]; [6]): 0.281 ± 0.022 | protein stability index (Saccharomyces cerevisiae [2]; [7]): 0.14 ± 0.026 | protein stability index (Saccharomyces cerevisiae [2]; [8]): 0.17 ± 0.018 | protein stability index (Saccharomyces cerevisiae [2]; [9]): 0.24 ± 0.033

LAFAGRCGLYVC
protein stability index (Saccharomyces cerevisiae [1]): 0.362 ± 0.053 | protein stability index (Saccharomyces cerevisiae [2]; [3]): 0.57 ± 0.064 | protein stability index (Saccharomyces cerevisiae [2]; [4]): 0.679 ± 0.016 | protein stability index (Saccharomyces cerevisiae [2]; [5]): 0.583 ± 0.026 | protein stability index (Saccharomyces cerevisiae [2]; [6]): 0.693 ± 0.0075 | protein stability index (Saccharomyces cerevisiae [2]; [7]): 0.289 ± 0.0035 | protein stability index (Saccharomyces cerevisiae [2]; [8]): 0.291 ± 0.021 | protein stability index (Saccharomyces cerevisiae [2]; [9]): 0.452 ± 0.0079

VLFFVLGVLVCL
protein stability index (Saccharomyces cerevisiae [1]): 0.397 ± 0.043 | protein stability index (Saccharomyces cerevisiae [2]; [3]): 0.319 ± 0.019 | protein stability index (Saccharomyces cerevisiae [2]; [4]): 0.429 ± 0.019 | protein stability index (Saccharomyces cerevisiae [2]; [5]): 0.348 ± 0.027 | protein stability index (Saccharomyces cerevisiae [2]; [6]): 0.471 ± 0.01 | protein stability index (Saccharomyces cerevisiae [2]; [7]): 0.319 ± 0.021 | protein stability index (Saccharomyces cerevisiae [2]; [8]): 0.338 ± 0.019 | protein stability index (Saccharomyces cerevisiae [2]; [9]): 0.441 ± 0.026

VWVISLCIGGGG
protein stability index (Saccharomyces cerevisiae [1]): 0.312 ± 0.013 | protein stability index (Saccharomyces cerevisiae [2]; [3]): 0.297 ± 0.0044 | protein stability index (Saccharomyces cerevisiae [2]; [4]): 0.369 ± 0.015 | protein stability index (Saccharomyces cerevisiae [2]; [5]): 0.24 ± 0.028 | protein stability index (Saccharomyces cerevisiae [2]; [6]): 0.405 ± 0.011 | protein stability index (Saccharomyces cerevisiae [2]; [7]): 0.213 ± 0.025 | protein stability index (Saccharomyces cerevisiae [2]; [8]): 0.225 ± 0.021 | protein stability index (Saccharomyces cerevisiae [2]; [9]): 0.3796 ± 0.0035

VVCFGCLAFFLG
protein stability index (Saccharomyces cerevisiae [1]): 0.497 ± 0.0057 | protein stability index (Saccharomyces cerevisiae [2]; [3]): 0.579 ± 0.0076 | protein stability index (Saccharomyces cerevisiae [2]; [4]): 0.613 ± 0.011 | protein stability index (Saccharomyces cerevisiae [2]; [5]): 0.461 ± 0.021 | protein stability index (Saccharomyces cerevisiae [2]; [6]): 0.624 ± 0.044 | protein stability index (Saccharomyces cerevisiae [2]; [7]): 0.412 ± 0.043 | protein stability index (Saccharomyces cerevisiae [2]; [8]): 0.409 ± 0.028 | protein stability index (Saccharomyces cerevisiae [2]; [9]): 0.533 ± 0.027

WFLWWCVCLFVF
protein stability index (Saccharomyces cerevisiae [1]): 0.307 ± 0.0073 | protein stability index (Saccharomyces cerevisiae [2]; [3]): 0.312 ± 0.015 | protein stability index (Saccharomyces cerevisiae [2]; [4]): 0.314 ± 0.03 | protein stability index (Saccharomyces cerevisiae [2]; [5]): 0.304 ± 0.023 | protein stability index (Saccharomyces cerevisiae [2]; [6]): 0.403 ± 0.018 | protein stability index (Saccharomyces cerevisiae [2]; [7]): 0.2527 ± 0.00072 | protein stability index (Saccharomyces cerevisiae [2]; [8]): 0.255 ± 0.012 | protein stability index (Saccharomyces cerevisiae [2]; [9]): 0.299 ± 0.0032

FLLIVSSVSFYL
protein stability index (Saccharomyces cerevisiae [1]): 0.342 ± 0.052 | protein stability index (Saccharomyces cerevisiae [2]; [3]): 0.209 ± 0.016 | protein stability index (Saccharomyces cerevisiae [2]; [4]): 0.2981 ± 0.00045 | protein stability index (Saccharomyces cerevisiae [2]; [5]): 0.213 ± 0.024 | protein stability index (Saccharomyces cerevisiae [2]; [6]): 0.3885 ± 0.0014 | protein stability index (Saccharomyces cerevisiae [2]; [7]): 0.177 ± 0.0069 | protein stability index (Saccharomyces cerevisiae [2]; [8]): 0.207 ± 0.021 | protein stability index (Saccharomyces cerevisiae [2]; [9]): 0.346 ± 0.0035

VAVGFVLGLCVV
protein stability index (Saccharomyces cerevisiae [1]): 0.447 ± 0.011 | protein stability index (Saccharomyces cerevisiae [2]; [3]): 0.392 ± 0.042 | protein stability index (Saccharomyces cerevisiae [2]; [4]): 0.418 ± 0.013 | protein stability index (Saccharomyces cerevisiae [2]; [5]): 0.348 ± 0.03 | protein stability index (Saccharomyces cerevisiae [2]; [6]): 0.4701 ± 0.0042 | protein stability index (Saccharomyces cerevisiae [2]; [7]): 0.31 ± 0.012 | protein stability index (Saccharomyces cerevisiae [2]; [8]): 0.35 ± 0.021 | protein stability index (Saccharomyces cerevisiae [2]; [9]): 0.431 ± 0.012

GLCVGRMFVRQI
protein stability index (Saccharomyces cerevisiae [1]): 0.454 ± 0.011 | protein stability index (Saccharomyces cerevisiae [2]; [3]): 0.6614 ± 0.0031 | protein stability index (Saccharomyces cerevisiae [2]; [4]): 0.7126 ± 0.0054 | protein stability index (Saccharomyces cerevisiae [2]; [5]): 0.661 ± 0.018 | protein stability index (Saccharomyces cerevisiae [2]; [6]): 0.7222 ± 0.005 | protein stability index (Saccharomyces cerevisiae [2]; [7]): 0.248 ± 0.0031 | protein stability index (Saccharomyces cerevisiae [2]; [8]): 0.263 ± 0.026 | protein stability index (Saccharomyces cerevisiae [2]; [9]): 0.5463 ± 0.0024

LQLRKQILLLMT
protein stability index (Saccharomyces cerevisiae [1]): 0.299 ± 0.025 | protein stability index (Saccharomyces cerevisiae [2]; [3]): 0.348 ± 0.022 | protein stability index (Saccharomyces cerevisiae [2]; [4]): 0.36 ± 0.011 | protein stability index (Saccharomyces cerevisiae [2]; [5]): 0.299 ± 0.022 | protein stability index (Saccharomyces cerevisiae [2]; [6]): 0.432 ± 0.005 | protein stability index (Saccharomyces cerevisiae [2]; [7]): 0.169 ± 0.019 | protein stability index (Saccharomyces cerevisiae [2]; [8]): 0.195 ± 0.013 | protein stability index (Saccharomyces cerevisiae [2]; [9]): 0.233 ± 0.034

WSSAHVAWCYTT
protein stability index (Saccharomyces cerevisiae [1]): 0.304 ± 0.013 | protein stability index (Saccharomyces cerevisiae [2]; [3]): 0.619 ± 0.026 | protein stability index (Saccharomyces cerevisiae [2]; [4]): 0.723 ± 0.021 | protein stability index (Saccharomyces cerevisiae [2]; [5]): 0.5991 ± 0.0031 | protein stability index (Saccharomyces cerevisiae [2]; [6]): 0.7298 ± 0.0027 | protein stability index (Saccharomyces cerevisiae [2]; [7]): 0.1926 ± 0.00045 | protein stability index (Saccharomyces cerevisiae [2]; [8]): 0.217 ± 0.022 | protein stability index (Saccharomyces cerevisiae [2]; [9]): 0.42 ± 0.0059

HLCVLWVLLLCF
protein stability index (Saccharomyces cerevisiae [1]): 0.333 ± 0.011 | protein stability index (Saccharomyces cerevisiae [2]; [3]): 0.286 ± 0.032 | protein stability index (Saccharomyces cerevisiae [2]; [4]): 0.323 ± 0.0031 | protein stability index (Saccharomyces cerevisiae [2]; [5]): 0.26 ± 0.025 | protein stability index (Saccharomyces cerevisiae [2]; [6]): 0.383 ± 0.011 | protein stability index (Saccharomyces cerevisiae [2]; [7]): 0.289 ± 0.015 | protein stability index (Saccharomyces cerevisiae [2]; [8]): 0.246 ± 0.019 | protein stability index (Saccharomyces cerevisiae [2]; [9]): 0.368 ± 0.024

SVCCSLLAVASP
protein stability index (Saccharomyces cerevisiae [1]): 0.3666 ± 0.0026 | protein stability index (Saccharomyces cerevisiae [2]; [3]): 0.311 ± 0.035 | protein stability index (Saccharomyces cerevisiae [2]; [4]): 0.355 ± 0.016 | protein stability index (Saccharomyces cerevisiae [2]; [5]): 0.364 ± 0.022 | protein stability index (Saccharomyces cerevisiae [2]; [6]): 0.323 ± 0.016 | protein stability index (Saccharomyces cerevisiae [2]; [7]): 0.392 ± 0.029 | protein stability index (Saccharomyces cerevisiae [2]; [8]): 0.384 ± 0.027 | protein stability index (Saccharomyces cerevisiae [2]; [9]): 0.29 ± 0.0066

HPPRSLTLASSS
protein stability index (Saccharomyces cerevisiae [1]): 0.127 ± 0.029 | protein stability index (Saccharomyces cerevisiae [2]; [3]): 0.696 ± 0.039 | protein stability index (Saccharomyces cerevisiae [2]; [4]): 0.75 ± 0.014 | protein stability index (Saccharomyces cerevisiae [2]; [5]): 0.661 ± 0.012 | protein stability index (Saccharomyces cerevisiae [2]; [6]): 0.754 ± 0.025 | protein stability index (Saccharomyces cerevisiae [2]; [7]): 0.65 ± 0.019 | protein stability index (Saccharomyces cerevisiae [2]; [8]): 0.6427 ± 0.0058 | protein stability index (Saccharomyces cerevisiae [2]; [9]): 0.7137 ± 0.00092

SRMIPSAFLLVI
protein stability index (Saccharomyces cerevisiae [1]): 0.442 ± 0.01 | protein stability index (Saccharomyces cerevisiae [2]; [3]): 0.589 ± 0.016 | protein stability index (Saccharomyces cerevisiae [2]; [4]): 0.64 ± 0.012 | protein stability index (Saccharomyces cerevisiae [2]; [5]): 0.507 ± 0.016 | protein stability index (Saccharomyces cerevisiae [2]; [6]): 0.627 ± 0.012 | protein stability index (Saccharomyces cerevisiae [2]; [7]): 0.348 ± 0.012 | protein stability index (Saccharomyces cerevisiae [2]; [8]): 0.371 ± 0.02 | protein stability index (Saccharomyces cerevisiae [2]; [9]): 0.513 ± 0.011

RFLCFDSVLTLC
protein stability index (Saccharomyces cerevisiae [1]): 0.463 ± 0.024 | protein stability index (Saccharomyces cerevisiae [2]; [3]): 0.626 ± 0.011 | protein stability index (Saccharomyces cerevisiae [2]; [4]): 0.6674 ± 0.0055 | protein stability index (Saccharomyces cerevisiae [2]; [5]): 0.56 ± 0.028 | protein stability index (Saccharomyces cerevisiae [2]; [6]): 0.6748 ± 0.00086 | protein stability index (Saccharomyces cerevisiae [2]; [7]): 0.32119 ± 0.00015 | protein stability index (Saccharomyces cerevisiae [2]; [8]): 0.348 ± 0.026 | protein stability index (Saccharomyces cerevisiae [2]; [9]): 0.546 ± 0.02

RDWCYFIRVCSV
protein stability index (Saccharomyces cerevisiae [1]): 0.383 ± 0.12 | protein stability index (Saccharomyces cerevisiae [2]; [3]): 0.604 ± 0.064 | protein stability index (Saccharomyces cerevisiae [2]; [4]): 0.616 ± 0.017 | protein stability index (Saccharomyces cerevisiae [2]; [5]): 0.479 ± 0.026 | protein stability index (Saccharomyces cerevisiae [2]; [6]): 0.6139 ± 0.006 | protein stability index (Saccharomyces cerevisiae [2]; [7]): 0.364 ± 0.015 | protein stability index (Saccharomyces cerevisiae [2]; [8]): 0.382 ± 0.021 | protein stability index (Saccharomyces cerevisiae [2]; [9]): 0.561 ± 0.01

LMFSRSLFIVKC
protein stability index (Saccharomyces cerevisiae [1]): 0.295 ± 0.043 | protein stability index (Saccharomyces cerevisiae [2]; [3]): 0.435 ± 0.035 | protein stability index (Saccharomyces cerevisiae [2]; [4]): 0.438 ± 0.051 | protein stability index (Saccharomyces cerevisiae [2]; [5]): 0.36 ± 0.038 | protein stability index (Saccharomyces cerevisiae [2]; [6]): 0.514 ± 0.018 | protein stability index (Saccharomyces cerevisiae [2]; [7]): 0.168 ± 0.0054 | protein stability index (Saccharomyces cerevisiae [2]; [8]): 0.178 ± 0.025 | protein stability index (Saccharomyces cerevisiae [2]; [9]): 0.343 ± 0.037
